Assay results reported in patent publication US11938195B2, “Upconversion nanoparticle peptide conjugates” (BP InnoMed Limited, priority 2021, dated 2024).
Where a SMILES comes first, the peptide text is derived from it. Where no end group is shown, it is not given here. [ ]: non-standard residue; d: D form. Ahx = NCCCCCC(=O)O

How the values were obtained:
[1] = Peptide release from nanoprobes under various pH buffers (UV-vis absorbance); type: physicochemical; settings: 24 h in buffer, 0.5 mg/mL
Excerpt: The stability and capability of cleavage of the pH linker were also studied. […] More importantly, TEM images of UCNP-P5 at different pH buffers were observed and investigated in FIG. 1, providing direct evidence on pH-responsive peptide release from UCNP. […]

p65 [2] = assay: Western blot of p65 (NF-κB) in C666 cells; type: cell-based
Excerpt: (§1) NF-κB signaling pathway is critical for the survival of EBV-infected tumor cells. Here we investigated if our nanoprobes could affect this oncogenic pathway. EBV-positive LCL3 and C666 cells were used as models, EBV-negative HK1 cells were used as control and Western blot was used to analyze the protein expression of p65, a major transcription factor in the NF-κB family. […] GAPDH and Histone are regarded as internal standards in cytosolic and nuclear fractions, respectively. […] This is consistent with the cellular uptake results.
(§2) Western blotting: EBV-positive C666, LCL3 and EBV-negative HK1 cell pellets were treated with phosphatase and protease inhibitors at 0-4° C. for 30 min. The total protein concentrations were calculated by protein absorbance. The protein was resolved by sodium dodecyl sulfate-polyacrylamide gel electrophoresis (SDS-PAGE) and transferred to cellulose filter membranes. The membranes were blocked with 3% BSA in Tris-buffered saline in 0.1% Tween 20 (TBST) for 1 h with gentle shaking and subsequently incubated with primary antibodies (1:1000) in 3% BSA in TBST at 4° C. for overnight. After rinsing with TBST buffer three times, the blots were then incubated with corresponding secondary anti-rabbit antibody (1:6000) for 1 h. After that, the blots were rinsed again with 3% BSA in TBST for 1 h shaking at room temperature. Lastly, the density of bands was determined by image analysis system after washing with TBST buffer three times.

[3] = molecular target: EBNA1 (DNA-binding domain fragment of a.a.468-607) (Epstein-Barr virus, UniProt P03211); assay: EBNA1 dimerization/oligomerization inhibition assay; type: biochemical; settings: 0.3 mg/mL nanoprobe, 90 mg EBNA1, DSS crosslinking, SDS gel
Sequence of EBNA1 (DNA-binding domain fragment of a.a.468-607) (P03211 468-607): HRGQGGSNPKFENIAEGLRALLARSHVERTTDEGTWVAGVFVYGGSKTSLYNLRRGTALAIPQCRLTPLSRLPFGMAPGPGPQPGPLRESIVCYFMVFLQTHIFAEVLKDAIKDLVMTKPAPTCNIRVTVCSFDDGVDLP
Experimental: EBNA1 dimerization/oligomerization inhibition assays were performed to reveal the ability of interrupting EBNA1 dimerization/oligomerization in the presence of the previous nanoprobe UCNP-P4 and the nanoplatforms in situ.
(conc.: 0.3 mg/mL) at 4° C. overnight. Then, 2 mM disuccinimidyl suberate (DSS) was added to allow the samples to undergo crosslinking reaction at room temperature for 30 min. The samples were run and separated on an SDS-denaturing gel and proteins were detected using Coomassie Blue staining. PBS buffer was used as control group.

C666 derived xenografts = assay: In vivo suppression assay, C666 xenograft; settings: for Effect on average tumor size: 12.5 mg/kg, intravenous (tail vein), twice a week, 33 days; for Body weight: C666 tumor-bearing mice, 33-day experimental period
Excerpt: To determine the antitumor efficacy of the new nanoprobes in vivo, their therapeutic effects were investigated in C666 and HeLa derived xenografts in BALB/c nude mice. The mice were randomly divided into five groups: (1) control (PBS), (2) UCNP, (3) UCNP-P5, (4) UCNP-P6, (5) UCNP-P7. In order to recapitulate the clinical setting of drug delivery, intravenous injection (via a tail vein) was used to deliver these agents to the immunocompromised animal.
In vivo suppression assays: EBV-positive C666 and EBV-negative HeLa cells were suspended in 200 μL of serum-free RMPI 1640 and DMEM respectively. Female BALB/c nude mice (6-8 weeks) which obtained from HKU were then injected with the cells in the right flank. Intravenous injections were performed when the average tumor volumes reached ˜200 mm^3. 0.25 mg/tumor dose of UCNP and UCNP-Pn [n=5, 6 and 7 (SEQ ID NO: 5, 6, 7)] in […] PBS buffer were injected through tail vein of mice using a 24-gauge syringe. Mice injected with the same volume of PBS buffer served as control. The body weight and tumor volumes of the mice were measured three times per week; in which the latter is calculated by (L×W^2)/2, where L and W are the longer and shorter tumor dimensions respectively. Intravenous injection at the tail vein were performed twice a week and the mice were sacrificed after 33-day experimental period; the tumors were extracted and weighed. The treatment groups are unknown to the investigators for the experimental and data analysis processes. The animal experiments conducted were approved by the Department of Health of the HKSAR Government. All animal procedures are within the Guidelines for Care and Use of Laboratory Animals of HKBU and approved by the Animal Ethics Committee of HKBU.
Hematoxylin and eosin (H&E) staining: In general, the transplanted C666 and HeLa derived tumor tissues were collected and fixed with formalin, followed by embedding in paraffin. The histologic sections were then stained with hematoxylin and eosin. Other major organ tissues (heart, liver, spleen, lung, kidney, brain) were conducted in the same procedures.

EBV-positive C666 cells [4] = assay: Two-photon confocal imaging, C666; type: cell-based; settings: mainly from the nuclei, 24 h incubation
Experimental: After the study of cellular uptake, fluorescent confocal microscopy was used to study the sub-cellular localization with the same set of EBV-/LMP1-positive and -negative cell lines. All these cell lines were treated with as-prepared samples for different time intervals of 1 h, 3 h, 6 h, 12 h and 24 h. Fluorescence signals in the cells were imaged under 980 nm excitation.
The cells were then co-stained with 0.05 mM nuclear dye DRAQ5 for 0.5 h for confocal imaging with a Leica SP8 confocal microscope equipped with a coherent femtosecond laser (690-1050 nm), argon laser (432 nm, 457 nm and 488 nm), He—Ne laser (632 nm), UV lamp. A stage-top cell culture chamber was also used to maintain the atmospheric conditions of 2-7% CO2 and a temperature of 37° C.

[5] = Peptide release from nanoprobes under various time intervals (UV-vis absorbance); type: physicochemical; settings: 0.5 mg/mL
Excerpt: The stability and capability of cleavage of the pH linker were also studied. […] More importantly, TEM images of UCNP-P5 at different pH buffers were observed and investigated in FIG. 1, providing direct evidence on pH-responsive peptide release from UCNP.

p65 [6] = assay: Western blot of p65 (NF-κB) in LCL3 cells; type: cell-based
Excerpt: as §1, §2

EBV-positive C666 cells [7] = assay: MTT cytotoxicity assay, C666 cells; settings: 24 h
Experimental: The inhibitory effects of the novel nanoprobes on both EBV-infected cancer cells and non-EBV-infected cancer cells were investigated by MTT assays to test the cell viability. The cytotoxic assays were performed in EBV-positive C666 and NPC43 cells, LMP1-positive LCL3 and Raji cells, and the LMP1-positive and -negative HK1 cell pair. HK1, MRC-5 and HeLa cell lines are EBV-negative and they serve as negative controls. […] In addition, UCNP-P4, EBNA1-specific peptide coated UCNPs was included as control group, so the ability of inhibiting EBV-related cancer cells can be directly compared with UCNP-Pn [n=5, 6 and 7 (SEQ ID NO: 5, 6, 7)].
In vitro cytotoxic assays: The cytotoxicity of our nanoprobes was determined by MTT reduction assay. The cells (3×10^3 per well) were seeded onto 96-well plates and incubated overnight, followed by treatment with Pn [n=5, 6 and 7 (SEQ ID NO: 5, 6, 7)], UCNP, UCNP-Pn [n=5, 6 and 7 (SEQ ID NO: 5, 6, 7)] and UCNP-P4 individually at 37° C., 5% CO2 for 24 h in dark. The cell monolayers were rinsed with PBS and 50 μL of MTT, 3-(4,5-dimethylthiazol-2-yl)-2,5-diphenyltetrazolium bromide solution (0.5 mg mL^−1) was added per well and the cells were further incubated for 3 h at 37° C. The solution was subsequently discarded, and the formazan crystals were dissolved in 100 μL of DMSO per well under shaking. The absorptions of the formazan crystal solutions at 540 nm and 690 nm were measured using a dual-wavelength Labsystem Multiskan microplate reader (Merck Eurolab).

Row | Compound | Peptide release rate ([1]; pH 5.0) [%] | Peptide release rate ([1]; pH 5.5) [%] | Peptide release rate ([1]; pH 6.0) [%] | Peptide release rate ([1]; pH 6.5) [%] | Peptide release rate ([1]; pH 7.0) [%] | Peptide release rate ([1]; pH 7.4) [%] | Effect on average tumor size (C666 derived xenografts) | Body weight (C666 derived xenografts) | Responsive emission enhancement (lambda scan) (EBV-positive C666 cells [4]) | Peptide release rate ([5]; 1 h) [%] | Peptide release rate ([5]; 3 h) [%] | Peptide release rate ([5]; 6 h) [%] | Peptide release rate ([5]; 12 h) [%] | Peptide release rate ([5]; 24 h) [%] | Peptide release rate ([5]; 3 day) [%] | Peptide release rate ([5]; 7 day) [%] | Cytotoxicity of free peptides (MTT cell viability) (EBV-positive C666 cells [7]) | also measured
1 | UCNP-P6: UCNP is NaGdF4:Yb^3+, Er^3+@NaGdF4 and the plurality of polypeptides is Ahx-RrRKGGYFMVFGGFWLY (SEQ ID NO: 6) ([Ahx]R[dR]RKGGYFMVFGGFWLY; also: UCNP conjugate) | 83.3 | 34.1 | 32.2 | 21.5 | 4.6 | 0 | no obvious effect on the tumor size | slight reduction of body weight | two-fold | 0 | 0 | 0.3 | 0.8 | 1.4 | 1.9 | 5.9 | – | Reduced p65 expression level, cytosolic fraction (p65 [2]): 87%; Inhibition of EBNA1 dimerization/oligomerization [3]: eradicate all 90 mg EBNA1 dimers and oligomers; Peptide release rate ([5]; 5 day): 2.9%; Reduced p65 expression level, cytosolic fraction (p65 [6]): 85%
2 | CSCC[C@H](NC(=O)[C@H](Cc1ccccc1)NC(=O)[C@H](Cc1ccc(O)cc1)NC(=O)CNC(=O)CNC(=O)[C@H](CCCCN)NC(=O)[C@H](CCCNC(=N)N)NC(=O)[C@@H](CCCNC(=N)N)NC(=O)[C@H](CCCNC(=N)N)NC(=O)CCCCCN)C(=O)N[C@H](C(=O)N[C@@H](Cc1ccccc1)C(=O)NCC(=O)NCC(=O)N[C@@H](Cc1ccccc1)C(=O)N[C@@H](Cc1c[nH]c2ccccc12)C(=O)N[C@@H](CC(C)C)C(=O)N[C@@H](Cc1ccc(O)cc1)C(=O)O)C(C)C [P6, -Ahx-RrRKGGYFMVFGGFWLY (SEQ ID NO:6)] (H-[Ahx]R[dR]RKGGYFMVFGGFWLY-OH; C-terminus assumed) | – | – | – | – | – | – | – | – | – | – | – | – | – | – | – | – | capable of selectively targeting and killing EBV-infected cells | –
3 | UCNP-P7: UCNP is NaGdF4:Yb^3+, Er^3+@NaGdF4 and the plurality of polypeptides is Ahx-FWLYGGRrRKGGYFMVF (SEQ ID NO: 7) ([Ahx]FWLYGGR[dR]RKGGYFMVF; also: UCNP conjugate) | 81.2 | 58.5 | 48.2 | 36.1 | 7.4 | 0 | no obvious effect on the tumor size | slight reduction of body weight | two-fold | 0 | 0 | 0.2 | 0.7 | 1.0 | 1.6 | 2.6 | – | –
4 | NaGdF4:Yb^3+, Er^3+@NaGdF4 [UCNP, reference compound] | – | – | – | – | – | – | – | – | – | – | – | – | – | – | – | – | – | Tumor uptake (ICP-MS biodistribution) (C666 derived xenografts; mouse, in vivo): nearly undetectable in the tumor
5 | CSCC[C@H](NC(=O)[C@H](Cc1ccccc1)NC(=O)[C@H](Cc1ccc(O)cc1)NC(=O)CNC(=O)CNC(=O)[C@H](CCCCN)NC(=O)[C@H](CCCNC(=N)N)NC(=O)[C@@H](CCCNC(=N)N)NC(=O)[C@H](CCCNC(=N)N)NC(=O)CNC(=O)CNC(=O)[C@H](Cc1ccc(O)cc1)NC(=O)[C@H](CC(C)C)NC(=O)[C@H](Cc1c[nH]c2ccccc12)NC(=O)[C@H](Cc1ccccc1)NC(=O)CCCCCN)C(=O)N[C@H](C(=O)N[C@@H](Cc1ccccc1)C(=O)O)C(C)C [P7, -Ahx-FWLYGGRrRKGGYFMVF (SEQ ID NO:7)] (H-[Ahx]FWLYGGR[dR]RKGGYFMVF-OH) | – | – | – | – | – | – | – | – | – | – | – | – | – | – | – | – | capable of selectively targeting and killing EBV-infected cells | –
6 | CSCC[C@H](NC(=O)[C@H](Cc1ccccc1)NC(=O)[C@H](Cc1ccc(O)cc1)NC(=O)CCCCCN)C(=O)N[C@H](C(=O)N[C@@H](Cc1ccccc1)C(=O)NCC(=O)NCC(=O)N[C@@H](CCCNC(=N)N)C(=O)N[C@H](CCCNC(=N)N)C(=O)N[C@@H](CCCNC(=N)N)C(=O)N[C@@H](CCCCN)C(=O)NCC(=O)NCC(=O)N[C@@H](Cc1ccccc1)C(=O)N[C@@H](Cc1c[nH]c2ccccc12)C(=O)N[C@@H](CC(C)C)C(=O)N[C@@H](Cc1ccc(O)cc1)C(=O)O)C(C)C [P5, -Ahx-YFMVFGGRrRKGGFWLY (SEQ ID NO:5)] (H-[Ahx]YFMVFGGR[dR]RKGGFWLY-OH; C-terminus assumed) | – | – | – | – | – | – | – | – | – | – | – | – | – | – | – | – | capable of selectively targeting and killing EBV-infected cells | Decreased p65 expression, nuclear fraction (p65 [2]): 89%; Decreased p65 expression, nuclear fraction (p65 [6]): 86%
